Where two headings read alike, the source gives them in different places.
T1: IL4 (human, UniProt P05112)
T1 chain: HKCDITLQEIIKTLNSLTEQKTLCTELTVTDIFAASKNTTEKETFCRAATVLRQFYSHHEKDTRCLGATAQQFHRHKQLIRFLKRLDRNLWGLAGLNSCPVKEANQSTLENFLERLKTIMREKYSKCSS


Experiments:
[1] = target: T2, IL13 (human, UniProt P35225); assay: SPR
[2] = target: T2, IL13; assay: SPR; remark: listed apart in the source
[3] = target: T2, IL13
[4] = target: T1, IL4

T2 sequence (P35225 35-146): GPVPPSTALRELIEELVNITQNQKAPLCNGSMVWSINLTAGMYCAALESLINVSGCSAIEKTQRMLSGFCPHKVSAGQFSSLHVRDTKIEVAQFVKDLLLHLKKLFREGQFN

Kd [1] [nM] | Kd [2] [nM] | binding result [3] | binding result [4] | Binder
0.025 | 0.025 | – | – | CODV-Ig heavy-chain template (batches 201-270, 501-508, 704, 801), IL13 arm (antibody, V domains shown) VH: EVQLKESGPGLVAPGGSLSITCTVSGFSLTDSSINWVRQPPGKGLEWLGMIWGDGRIDYADALKSRLSISKDSSKSQVFLEMTSLRTDDTATYYCARDGYFPYAMDFWGQGTSVTVSS VL: DIVLTQSPASLAVSLGQRATISCRASESVDSYGQSYMHWYQQKAGQPPKLLIYLASNLESGVPARFSGSGSRTDFTLTIDPVQAEDAATYYCQQNAEDSRTFGGGTKLEIK
– | – | no binding | no binding | Cross-over IL4(G4S2)IL13CH1-Fc / IL13(G4S2)IL4CL (antibody) chain 1: not shown chain 2: DIVLTQSPASLAVSLGQRATISCRASESVDSYGQSYMHWYQQKAGQPPKLLIYLASNLESGVPARFSGSGSRTDFTLTIDPVQAEDAATYYCQQNAEDSRTFGGGTKLEIKGGGGSGGGGSDIQMTQSPASLSVSVGDTITLTCHASQNIDVWLSWFQQKPGNIPKLLIYKASNLHTGVPSRFSGSGSGTGFTLTISSLQPEDIATYYCQQAHSYPFTFGGGTKLEIKRTVAAPSVFIFPPSDEQLKSGTASVVCLLNNFYPREAKVQWKVDNALQSGNSQESVTEQDSKDSTYSLSSTLTLSKADYEKHKVYACEVTHQGLSSPVTKSFNRGEC
